One assay deals with TrkB (Homo sapiens, UniProt Q16620). The assay can be described thus: PathHunter eXpress TrkB Functional Assay (phosphorylation of TrkB). The class given is cell-based. The settings on record: maximum signal induced by BDNF = 100%; stimulation for 3 hours. The method, then: To evaluate the TrkB activation potency of the TrkB agonist peptide of the present invention, the phosphorylation of TrkB was examined. The PathHunter (registered trademark) eXpress TrkB Functional Assay kit (DiscoverX; cells, 96-well plate, medium, and detection reagents included) was used and the evaluation was performed according to the attached protocols. The frozen cells were thawed and suspended in the medium, then seeded into a 96-well plate at 10,000 cells per well and incubated for 48 hours. Thereafter, Recombinant Human BDNF Protein (R&D Systems) or a peptide was added, and after stimulation for 3 hours, a detection reagent was added. The reaction was performed while protected from the light at room temperature for 60 minutes, and luminescent signals were measured using a SpectraMax Paradigm Multi-Mode Microplate Reader (Molecular Devices). The obtained signals were analyzed with GraphPad Prism, and the activity (%) was calculated with the maximum value of the signals induced by BDNF as 100% and a signal with no stimulation as 0%.
The BDNF was evaluated at 8 points (0.006 nM to 100 nM) from 100 nM using 4-fold dilutions. The peptide was evaluated in the measurement ranges A to C shown below. • Measurement range A=6 points from 100 nM using 5-fold dilutions (0.032 nM to 100 nM) • Measurement range B=8 points from 100 nM using 4-fold dilutions (0.006104 nM to 100 nM) • Measurement range C=4 points from 10 nM using 10-fold dilutions (0.01 nM to 10 nM)

For assay [1], the target named is TrkB of the cells of the PathHunter eXpress TrkB Functional Assay kit (DiscoverX) (UniProt Q16620 32-822, limits assumed). The experiment in a line: cell-based or functional assay.

*1 amine or outer side, *2 acyl side, *3 side chain or, on linkers, in order; H or OH if unused. Where a SMILES comes first, the peptide text is derived from it. Bridges are numbered along the chain shown (N, C = ends). Roman numbers before positions name the chains, in order. Where no end group is shown, it is not given here. [ ]: non-standard residue; d: D form. CO(CH2CH2O)9CH2CH2CO = O=C(CCOCCOCCOCCOCCOCCOCCOCCOCCOCCC(=O)[*:2])[*:1]; 3Pal = N[C@@H](Cc1cccnc1)C(=O)O

Sequence of TrkB of the cells of the PathHunter eXpress TrkB Functional Assay kit (DiscoverX) (Q16620 32-822 limits assumed): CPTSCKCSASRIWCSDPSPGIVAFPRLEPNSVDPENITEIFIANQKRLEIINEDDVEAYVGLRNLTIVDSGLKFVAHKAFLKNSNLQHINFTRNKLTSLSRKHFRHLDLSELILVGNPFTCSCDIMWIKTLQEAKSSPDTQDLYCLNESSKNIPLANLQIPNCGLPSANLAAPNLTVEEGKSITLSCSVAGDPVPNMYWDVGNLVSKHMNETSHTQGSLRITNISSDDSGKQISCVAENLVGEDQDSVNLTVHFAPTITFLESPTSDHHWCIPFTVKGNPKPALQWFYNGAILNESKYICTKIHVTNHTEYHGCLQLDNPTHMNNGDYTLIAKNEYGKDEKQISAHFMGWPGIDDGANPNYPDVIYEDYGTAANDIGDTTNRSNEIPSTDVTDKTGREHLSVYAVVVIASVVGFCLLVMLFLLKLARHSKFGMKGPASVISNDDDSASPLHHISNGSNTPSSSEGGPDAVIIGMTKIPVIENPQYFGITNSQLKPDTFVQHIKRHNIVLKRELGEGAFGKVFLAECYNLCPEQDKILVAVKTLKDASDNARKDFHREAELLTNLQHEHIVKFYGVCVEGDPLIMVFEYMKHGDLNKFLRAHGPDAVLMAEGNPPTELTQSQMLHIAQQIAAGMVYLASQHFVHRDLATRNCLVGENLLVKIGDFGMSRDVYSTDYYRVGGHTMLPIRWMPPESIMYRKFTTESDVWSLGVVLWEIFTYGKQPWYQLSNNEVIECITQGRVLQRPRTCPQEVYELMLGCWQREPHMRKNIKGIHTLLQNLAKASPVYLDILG
Sequence of TrkB (Q16620 32-822): as the sequence (Q16620 32-822 limits assumed) above

Molecule `CC(C)[C@@H]1NC(=O)[C@H](Cc2cccnc2)NC(=O)[C@H](CCC(=O)O)NC(=O)[C@H](CO)NC(=O)[C@H](Cc2ccc(O)cc2)NC(=O)[C@H]([C@@H](C)O)NC(=O)[C@@H]2CCCN2C(=O)[C@H](Cc2c[nH]c3ccccc23)NC(=O)[C@H](Cc2cccnc2)NC(=O)[C@H](Cc2ccc(O)cc2)NC(=O)[C@@H]2CCCN2C(=O)[C@H](CO)NC(=O)[C@H](Cc2ccccc2)NC(=O)CSC[C@@H](C(=O)NCC(=O)N[C@@H](CCCCNC(=O)CCOCCOCCOCCOCCOCCOCCOCCOCCOCCC(=O)NCCCC[C@H](NC(=O)CNC(=O)[C@@H]2CSCC(=O)N[C@@H](Cc3ccccc3)C(=O)N[C@@H](CO)C(=O)N3CCC[C@H]3C(=O)N[C@@H](Cc3ccc(O)cc3)C(=O)N[C@@H](Cc3cccnc3)C(=O)N[C@@H](Cc3c[nH]c4ccccc34)C(=O)N3CCC[C@H]3C(=O)N[C@@H]([C@@H](C)O)C(=O)N[C@@H](Cc3ccc(O)cc3)C(=O)N[C@@H](CO)C(=O)N[C@@H](CCC(=O)O)C(=O)N[C@@H](Cc3cccnc3)C(=O)N[C@@H](C(C)C)C(=O)N[C@@H](CCC(=O)O)C(=O)N2)C(N)=O)C(N)=O)NC(=O)[C@H](CCC(=O)O)NC1=O` [compound 47] (I: {CH2CO}-FSPY[3Pal]WPTYSE[3Pal]VECGK-NH2 / II: {CH2CO}-FSPY[3Pal]WPTYSE[3Pal]VECGK-NH2; linker I:17-II:17 via CO(CH2CH2O)9CH2CH2CO; thioether I:N-I:15, II:N-II:15) had an Emax on TrkB of 107%.

B1: peptide complex, dimer structure No. 51 (peptide sequence No. 15 + linker structure No. 10) (peptide)
peptide: {CH2CO}-FSPY[3Pal]WPTYSE[3Pal]VECG
modifications: thioether N-15; also: homodimer via linker No. 10 (PEG2c-K-cPEG1c-K-PEG2c) at Gly16
Regarding B1, in assay [1], the “PathHunter EC50” value came to 0.599 nM and the “PathHunter Emax (BDNF maximum = 100%)” value was found to be 106%.

B2: peptide complex, dimer structure No. 14 (peptide sequence No. 14 + linker structure No. 2) (peptide)
peptide: {CH2CO}-FLPY[3Pal]WPTYSE[3Pal]VECG
modifications: thioether N-15; also: homodimer via linker No. 2 (PEG8c-K-PEG8c) at Gly16
Turning to B2, in assay [1], the “PathHunter EC50” value stood at 0.197 nM and the “PathHunter Emax (BDNF maximum = 100%)” value was determined as 86%.

B3: peptide complex, dimer structure No. 2 (peptide sequence No. 3 + linker structure No. 2) (peptide)
peptide: {CH2CO}-FLPY[3Pal]WPTYSL[3Pal]VWCG
modifications: thioether N-15; also: homodimer via linker No. 2 (PEG8c-K-PEG8c) at Gly16
Consider B3, for which the “PathHunter Emax (BDNF maximum = 100%)” value in assay [1] amounted to 89%.

B4: peptide complex, dimer structure No. 49 (peptide sequence No. 15 + linker structure No. 8) (peptide)
peptide: {CH2CO}-FSPY[3Pal]WPTYSE[3Pal]VECG
modifications: thioether N-15; also: homodimer via linker No. 8 (K-cPEG17c-K) at Gly16
As for B4, in assay [1], the “PathHunter EC50” value amounted to 0.644 nM and the “PathHunter Emax (BDNF maximum = 100%)” value was 107%.

B5: peptide complex, dimer structure No. 15 (peptide sequence No. 15 + linker structure No. 2) (peptide)
peptide: {CH2CO}-FSPY[3Pal]WPTYSE[3Pal]VECG
modifications: thioether N-15; also: homodimer via linker No. 2 (PEG8c-K-PEG8c) at Gly16
Take B5: in assay [1], the “PathHunter EC50” value amounted to 0.29 nM and the “PathHunter Emax (BDNF maximum = 100%)” value was found to be 104%.

B6: peptide complex, dimer structure No. 18 (peptide sequence No. 18 + linker structure No. 2) (peptide)
peptide: {CH2CO}-FEPY[3Pal]WPTYSE[3Pal]VSCG
modifications: thioether N-15; also: homodimer via linker No. 2 (PEG8c-K-PEG8c) at Gly16
Take B6: in assay [1], the “PathHunter EC50” value was determined as 0.26 nM and the “PathHunter Emax (BDNF maximum = 100%)” value is 93%.

B7: peptide complex, dimer structure No. 33 (peptide sequence No. 15 + linker structure No. 4) (peptide)
peptide: {CH2CO}-FSPY[3Pal]WPTYSE[3Pal]VECG
modifications: thioether N-15; also: homodimer via linker No. 4 (PEG8c-K-cPEG1c-K-PEG8c) at Gly16
On to B7, for which, in assay [1], the “PathHunter EC50” value was 0.354 nM and the “PathHunter Emax (BDNF maximum = 100%)” value came out at 96%.

B8: peptide complex, dimer structure No. 55 (peptide sequence No. 15 + linker structure No. 14) (peptide)
peptide: {CH2CO}-FSPY[3Pal]WPTYSE[3Pal]VECG
modifications: thioether N-15; also: homodimer via linker No. 14 (K-OCOPEG13OCO-K) at Gly16
On to B8, for which, in assay [1], the “PathHunter EC50” value stood at 0.581 nM and the “PathHunter Emax (BDNF maximum = 100%)” value is 104%.

B9: peptide complex, dimer structure No. 3 (peptide sequence No. 3 + linker structure No. 3) (peptide)
peptide: {CH2CO}-FLPY[3Pal]WPTYSL[3Pal]VWCG
modifications: thioether N-15; also: homodimer via linker No. 3 (PEG12c-K-PEG12c) at Gly16
As for B9, in assay [1], the “PathHunter Emax (BDNF maximum = 100%)” value is 89%.

B10: peptide complex, dimer structure No. 57 (peptide sequence No. 17 + linker structure No. 14) (peptide)
peptide: {CH2CO}-FEPY[3Pal]WPTYSE[3Pal]VECG
modifications: thioether N-15; also: homodimer via linker No. 14 (K-OCOPEG13OCO-K) at Gly16
As for B10, in assay [1], the “PathHunter EC50” value came to 0.669 nM and the “PathHunter Emax (BDNF maximum = 100%)” value stood at 99%.

B11: peptide complex, dimer structure No. 47 (peptide sequence No. 15 + linker structure No. 6) (peptide)
peptide: {CH2CO}-FSPY[3Pal]WPTYSE[3Pal]VECG
modifications: thioether N-15; also: homodimer via linker No. 6 (K-cPEG9c-K) at Gly16
Turning to B11, in assay [1], the “PathHunter EC50” value turned out to be 0.556 nM and the “PathHunter Emax (BDNF maximum = 100%)” value was 107%.
